B1: Anti-ST2 11F9 (antibody, V domains shown)
VH: QIQLVQSGPELKKPGETVKLSCKASGYTFTDYSIHWVKQAPGKGLKWMGWIHTETGEPTYADDFKGRFAFSLETSASTAYFQINNLRNEDTATYFCARDDGLDYWGQGTSVTVSS
VL: DVQMIQSPSSLSASLGDIVTMTCQASQDTNINLNWFQQKPGKAPELLIYDTNNLEDGVPSRFSGSRYGTDFTLTISSLEDEDMATYFCLQHSYLPLTFGAGTKLELK

Columns and labels:
生长刺激表达基因2蛋白(ST2)抗原 [1] = biological target: T1, 生长刺激表达基因2蛋白(ST2)抗原 (UniProt Q01638-2 19-328, limits assumed); assay: sandwich ELISA, antibody at 1.953 ng/ml captured on goat anti-mouse IgG, ST2 antigen, HRP anti-ST2 mAb detection
T1 construct: also called sST2; IL1RL1
T1 sequence (looked up): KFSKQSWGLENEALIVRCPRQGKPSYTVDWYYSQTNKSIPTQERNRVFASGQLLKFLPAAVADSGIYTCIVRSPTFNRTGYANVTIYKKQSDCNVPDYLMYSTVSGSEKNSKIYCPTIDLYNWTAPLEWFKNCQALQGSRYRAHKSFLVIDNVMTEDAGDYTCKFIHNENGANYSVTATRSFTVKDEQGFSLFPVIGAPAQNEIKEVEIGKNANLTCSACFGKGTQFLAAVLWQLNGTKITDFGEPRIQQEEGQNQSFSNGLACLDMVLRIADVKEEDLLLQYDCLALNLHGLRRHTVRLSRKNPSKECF

生长刺激表达基因2蛋白(ST2)抗原 [2] = biological target: T1, 生长刺激表达基因2蛋白(ST2)抗原; assay: sandwich ELISA, antibody at 0.000 ng/ml (blank, no antibody), ST2 antigen, HRP anti-ST2 mAb detection
生长刺激表达基因2蛋白(ST2)抗原 [3] = biological target: T1, 生长刺激表达基因2蛋白(ST2)抗原; assay: sandwich ELISA, antibody at 15.625 ng/ml captured on goat anti-mouse IgG, ST2 antigen, HRP anti-ST2 mAb detection
生长刺激表达基因2蛋白(ST2)抗原 [4] = biological target: T1, 生长刺激表达基因2蛋白(ST2)抗原; assay: BLI, AMC sensor, antibody immobilised at 10 ug/ml, ST2 antigen in serial dilution
生长刺激表达基因2蛋白(ST2)抗原 [5] = biological target: T1, 生长刺激表达基因2蛋白(ST2)抗原; assay: sandwich ELISA, antibody at 31.250 ng/ml captured on goat anti-mouse IgG, ST2 antigen, HRP anti-ST2 mAb detection
生长刺激表达基因2蛋白(ST2)抗原 [6] = biological target: T1, 生长刺激表达基因2蛋白(ST2)抗原; assay: sandwich ELISA, antibody at 7.813 ng/ml captured on goat anti-mouse IgG, ST2 antigen, HRP anti-ST2 mAb detection
生长刺激表达基因2蛋白(ST2)抗原 [7] = biological target: T1, 生长刺激表达基因2蛋白(ST2)抗原; assay: sandwich ELISA, antibody at 3.906 ng/ml captured on goat anti-mouse IgG, ST2 antigen, HRP anti-ST2 mAb detection

Molecule | OD450 (ref 630) (生长刺激表达基因2蛋白(ST2)抗原 [1]) [OD] | OD450 (ref 630) (生长刺激表达基因2蛋白(ST2)抗原 [2]) [OD] | OD450 (ref 630) (生长刺激表达基因2蛋白(ST2)抗原 [3]) [OD] | Kd (生长刺激表达基因2蛋白(ST2)抗原 [4]) [nM] | koff (生长刺激表达基因2蛋白(ST2)抗原 [4]) [s⁻¹] | kon (生长刺激表达基因2蛋白(ST2)抗原 [4]) [M⁻¹ s⁻¹] | OD450 (ref 630) (生长刺激表达基因2蛋白(ST2)抗原 [5]) [OD] | OD450 (ref 630) (生长刺激表达基因2蛋白(ST2)抗原 [6]) [OD] | OD450 (ref 630) (生长刺激表达基因2蛋白(ST2)抗原 [7]) [OD]
对照 (antibody) | 0.163 | 0.046 | 0.665 | 7.3 | 0.00723 | 990000 | 1.51 | 0.37 | 0.26
B1 | – | – | – | 0.761 | 0.000745 | 979000 | – | – | –
